According to patent publication US20220363623A1, “IMAGING AND THERAPEUTIC COMPOSITIONS” (priority 2019, published 2022):
*1 amine or outer side, *2 acyl side, *3 side chain or, on linkers, in order; H or OH if unused. Where a SMILES comes first, the peptide text is derived from it. Bridges are numbered along the chain shown (N, C = ends). Side-chain parts run from the residue outwards. [ ]: non-standard residue; d: D form. The star is where a group is joined. X1 = O=C([C@@H](Cc1ccccc1)N(c1c(NCCCCCN(O)[*:3])c(=O)c1=O)[*:1])[*:2]; X2 = CC(=O)N(O)CCCCCNC(=O)CCC(=O)N(O)CCCCCN*; Thr(ol) = C[C@@H](O)[C@H](N)CO; Suc = O=C(CCC(=O)[*:2])[*:1]

Tests used:
[1] = system: AR42J (rat pancreatic cancer cell line) tumour; assay: in vivo; parameters: species or system mice; conditions: female, Balb/c nude, mouse, iv
Protocol: (§1) PET-CT imaging and Biodistribution of Octreotate/tide Tracers. Female Balb/c nude mice (age 9 weeks) were inoculated subcutaneously on the right flank with 3×10^6 AR42J cells in PBS:Matrigel (1:1). Mice were weighed and tumours measured twice weekly using electronic callipers. Tumour volume (mm^3) was calculated as length^2×width/2. 12 mice were assigned for imaging and biodistribution studies (tumour volumes: 170-550 mm^3). DFOSqTIDE (2.5 MBq) and DFOSqTATE (2.2 MBq) were administered intravenously by tail vein injection to mice on. At 1, 2, 4 and 18 hr post injection three mice were anaesthetised using isoflurane and placed on the imaging bed of a G8 PET/CT scanner (Perkin Elmer). A CT scan was performed which was immediately followed by a 10 min static PET scan. PET images were reconstructed using the maximal likelihood and expectation maximization (ML-EM) algorithm. PET images were analysed using VivoQuant (Invicro) and Tumour SUVmax, Tumour SUVmax/background average (TBR) and Tumour SUVmax/liver average (TLR) determined. After imaging at 18 hr mice were euthanised and selected tissues were excised, weighed and counted using a Capintec (Captus 4000e) gamma counter. A separate cohort of 3 mice was harvested at 1 hr post injection for biodistribution analysis. The data was analysed using GraphPad Prism 7 and differences between tracers analysed using a t-test. The high tumor uptake was confirmed by an ex vivo biodistribution study in the same mouse model where mice were injected with either ^68GaDFOSq-TIDE and ^68GaDFOSq-TATE (2-3 MBq, 1 μg, 0.5 nmol) and then euthanised at either 1 h or 2 h after administration. The amount of injected activity per gram of tissue (% IA/g) in the tumor and major organs was quantified (FIG. 16).

[2] = system: AR42J (rat pancreatic cancer cell line) tumour; assay: in vivo; parameters: species or system mice; conditions: mouse
Protocol: as §1, with “t-test.” for “t-test. The high tumor uptake was confirmed by an ex vivo biodistribution study in the same mouse model where mice were injected with either ^68GaDFOSq-TIDE and ^68GaDFOSq-TATE (2-3 MBq, 1 μg, 0.5 nmol) and then euthanised at either 1 h or 2 h after administration. The amount of injected activity per gram of tissue (% IA/g) in the tumor and major organs was quantified (FIG. 16).”
AR42J (rat pancreatic cancer cell line) tumour bearing Balb/c nude mice as described above were injected intravenously via tail vein injection with ^89ZrDFOSqTATE or ^89ZrDFOSqTIDE (2-3 MBq). At 1, 2, 4 and 18 h post-injection the mice were anaesthetised with isoflurane and imaged over 10 min. At 1 hr after injection of DFOSqTIDE and DFOSqTATE, uptake into kidney, tumour and liver was observed. Representative PET images of mice injected with DFOSqTIDE and DFOSqTATE are shown in FIG. 12 and quantitation of the tumour SUVmax for each radiotracer is summarised in FIG. 13a.
^68GaDFOSq-TIDE and ^68GaDFOSq-TATE tracers were injected (2-3 MBq, 1 μg, 0.5 nmol) intravenously via tail vein to AR42J (rat pancreatic cancer cell line) tumour bearing Balb/c nude mice. PET images were acquired at 1 and 2 h post-injection (FIGS. 15a and b). […] Quantification of the uptake in the images using Standard Uptake Value (SUVmax=radioactivity in a tissue/injected activity/BW) confirms the higher uptake for ^68GaDFOSq-TATE (1 h; SUVmax 1.8±0.2, compared to 1.21±0.20, FIG. 15c). The higher tumor uptake of ^68GaDFOSqTATE was also associated with a higher degree of tumor retention at 2 h post injection with only a 5% reduction in SUVmax whereas the tumor SUVmax for ^68GaDFOSqTIDE reduced by 30% ^68GaDFOSqTATE at 2 h post injection. Both tracers clear rapidly from the blood and there is low uptake in bone consistent with stable gallium-68 complexes as well as low uptake in muscle. Both tracers have significant uptake in the kidneys and bladder.

[3] = system: LNCaP (human PSMA expressing prostate cancer cell line) tumour; parameters: species or system mice; conditions: mouse, in vivo
Protocol: (§2) PET-CT imaging and Biodistribution. Male Balb/c nude mice (age 8.5 weeks) or Male NSG mice (age 12 weeks) were inoculated subcutaneously on the right flank with 6×10^6 LNCap cells in PBS:Matrigel (1:1). Mice were weighed and tumours measured twice weekly using electronic callipers. Tumour volume (mm^3) was calculated as length×width×height×π/6. Mice were assigned for imaging and biodistribution studies (tumour volumes: 85-450 mm3). ^89Zr-DFOSq-PSMA tracers were then administered intravenously by tail vein injection to 6 mice. At 1, 2, 4 and 18 hr post injection three mice were anaesthetised using isoflurane and placed on the imaging bed of a G8 PET/CT scanner (Perkin Elmer). A CT scan was performed and followed immediately by a 10 min static PET scan. PET images were reconstructed using the maximal likelihood and expectation maximization (ML-EM) algorithm. PET Images were analysed using VivoQuant (Invicro) and Tumour SUVmax or Tumour SUVmax/background average (TBR) determined. After imaging at 18 hr mice were euthanised and selected tissues were excised, weighed and counted using a Capintec (Captus 4000e) gamma counter. A separate cohort of 3 mice was harvested at 1 hr post injection for biodistribution analysis as above. The data was analysed using GraphPad Prism 7 and differences between tracers analysed using a t-test.
(§3) ^89Zr Labelled tracers: The ^89Zr radiolabelled PSMA tracers were injected intravenously via tail vein to LNCaP (human PSMA expressing prostate cancer cell line) tumour bearing mice. At 1, 2, 4 and 18 h post-injection the mice were anaesthetised with isoflurane and imaged over 10 min. The representative PET images of mice injected with ^89Zr radiolabelled PSMA tracers at 1 and 18 hr are shown in FIG. 1 and quantitation of the Tumour SUVmax for each tracer is shown in FIG. 2a. […] There was a trend for higher tumour SUVmax for (4) tracer compared to all other tracers at all time points. […] A comparison of tumour uptake values is shown in FIG. 2b and the tissue biodistribution data for the tracers at 1 and 18 hr is summarised in FIG. 3.
(§4) ^68Ga Labelled tracers: Representative PET images of mice injected with ^68Ga(1) and ^68Ga(4) are shown in FIG. 4 and quantitation of the tumour SUVmax is shown in FIG. 5a. […] Tumour uptake of ^68Ga(4) was 1.6 and 1.8 fold higher than ^68Ga(1) at 1 and 2 hr p.i., respectively. This is consistent with the biodistribution results where tumour % ID/g for ^68Ga(4) was higher than ^68Ga(1) at 1 hr (10.8±1.3 vs 6.5±0.4) and at 2.5 hr (8.6±1.0 vs 4.1±0.5) p.i. […] (6.5±0.4% ID/g at 1 hr vs 4.1±0.5% ID/g at 2.5 hr). In contrast, there was no significant change in ^68Ga(4) tumour retention at 1 and 2.5 p.i. (10.8±1.3% ID/g vs […], FIG. 5b).

[4] = system: LNCaP (human PSMA expressing prostate cancer cell line) tumour; assay: in vivo; parameters: species or system mice; conditions: mouse
Protocol: as §2, §3, §4

in vivo = assay: in vivo; parameters: species or system mice; conditions: male, mouse, total radioactivity
Protocol: as §2, §3, §4

LNCap cells = assay: Cell binding and internalization studies in LNCap cells; assay type: cell-based, human; conditions: 89Zr tracers, 60 min, 37° C.
Protocol: Cell binding and internalization studies. LNCap cells (150,000/well) were plated in RPMI 1640 medium containing 10% FBS into wells of a 24 well plate pre-coated with 0.05% poly-L-lysine and incubated overnight at 37° C. and 5% CO2. The following day cells were washed twice with PBS and incubated for 1 hour at 37° C. in 1 mL per well internalisation buffer (MEM, 1% FBS). The buffer was then replaced with 1 ml per well of a warmed solution containing 0.5 μCi ^89Zr-DFOsq-PSMA tracers in internalisation buffer. Cells were incubated in triplicate for 5, 15, 30 or 60 min at 37° C. and 5% CO2. At each time point, cells were washed twice with ice-cold PBS and the washes collected for counting (unbound fraction). Cells were then incubated twice for 10 min in saline containing 10 μM PMPA and each wash collected for counting (surface bound fraction). The cells were then solubilised in 1 M NaOH (internalised fraction). Total protein content was determined in this fraction using a BCA protein assay kit (Pierce). A Perkin Elmer 2480 Wizard automatic gamma counter was then used to measure Zr-89 radioactivity in unbound, surface bound and internalised fractions. Surface bound and internalised fractions were expressed as percentage of total added radioactivity per mg of protein. Non-specific membrane binding and internalisation was determined by incubating cells with the ^89Zr-DFOSq-PSMA tracers in the presence of excess (10 μM) PMPA. ^89Zr-DFOSq-PSMA tracers uptake at 60 min was also determined in DU145 cells (seeded at 125,000 cells/well), a PSMA negative cell line. The raw data was analysed using GraphPad Prism 7.

SMILES: CC(=O)N(O)CCCCCNC(=O)CCC(=O)N(O)CCCCCNC(=O)CCC(=O)N(O)CCCCCNc1c(N[C@H](Cc2ccccc2)C(=O)N[C@H]2CSSC[C@@H](C(=O)N[C@H](C(=O)O)[C@@H](C)O)NC(=O)[C@H]([C@@H](C)O)NC(=O)[C@H](CCCCN)NC(=O)[C@@H](Cc3c[nH]c4ccccc34)NC(=O)[C@H](Cc3ccc(O)cc3)NC2=O)c(=O)c1=O (89Zr complex, metal not drawn) [^89ZrDFOSqTATE] (H-[X1]([Suc-X2])CY[dW]KTCT-OH; disulfide 2-7)
- Tumour Uptake % ID/g 1 h pi [1]: 10.4 ± 0.5 % ID/g
- Tumour Uptake % ID/g 18 h pi [1]: 4.9 ± 0.8 % ID/g
- Tumour SUVmax 1 h pi [2]: 3.1 ± 0.2
- Tumour SUVmax 18 h pi [2]: 1.3 ± 0.15
- Tumour SUVmax Clearance % [2]: 58%

SMILES: CC(=O)N(O)CCCCCNC(=O)CCC(=O)N(O)CCCCCNC(=O)CCC(=O)N(O)CCCCCNc1c(N[C@H](Cc2ccccc2)C(=O)N[C@H]2CSSC[C@@H](C(=O)N[C@H](CO)[C@@H](C)O)NC(=O)[C@H]([C@@H](C)O)NC(=O)[C@H](CCCCN)NC(=O)[C@@H](Cc3c[nH]c4ccccc34)NC(=O)[C@H](Cc3ccc(O)cc3)NC2=O)c(=O)c1=O (89Zr complex, metal not drawn) [^89ZrDFOSqTIDE] (H-[X1]([Suc-X2])CY[dW]KTC[Thr(ol)]; disulfide 2-7)
- Tumour Uptake % ID/g 1 h pi [1]: 3.4 ± 0.4 % ID/g
- Tumour Uptake % ID/g 18 h pi [1]: 1.7 ± 0.1 % ID/g
- Tumour SUVmax 1 h pi [2]: 1.1 ± 0.07
- Tumour SUVmax 18 h pi [2]: 0.5 ± 0.01
- Tumour SUVmax Clearance % [2]: 55%

SMILES: CC(=O)N(O)CCCCCNC(=O)CCC(=O)N(O)CCCCCNC(=O)CCC(=O)N(O)CCCCCNc1c(NCCN(CCNC(=O)CCCC(=O)NCc2ccc(C(=O)NCCCCC(NC(=O)NC(CCC(=O)O)C(=O)O)C(=O)O)cc2)CCNC(=O)CCCC(=O)NCc2ccc(C(=O)NCCCCC(NC(=O)NC(CCC(=O)O)C(=O)O)C(=O)O)cc2)c(=O)c1=O (single isomer, unassigned) [^68Ga(4), metal not drawn]
- Gut uptake in PET images [3]: no gut uptake
- Kidney uptake in PET images [3]: high kidney uptake
- LNCap tumour uptake in PET images [3]: moderate tumour uptake
- Tumour SUVmax 1 h pi [3]: 1.6 ± 0.10
- Tumour SUVmax 2 h pi [3]: 1.5 ± 0.09
- Tumour Uptake % ID/g 1 h pi [4]: 10.8±1.3 % ID/g
- tissue uptake at 1 h (in vivo; Tumour Uptake % ID/g 1 h pi): 10.8 ± 1.26 %ID/g
- tissue uptake at 2.5 h (in vivo; Tumour Uptake % ID/g 2.5 h pi): 8.6 ± 0.93 %ID/g

SMILES: CC(=O)N(O)CCCCCNC(=O)CCC(=O)N(O)CCCCCNC(=O)CCC(=O)N(O)CCCCCNc1c(NCCN(CCNC(=O)CCCC(=O)NCCCCC(NC(=O)NC(CCC(=O)O)C(=O)O)C(=O)O)CCNC(=O)CCCC(=O)NCCCCC(NC(=O)NC(CCC(=O)O)C(=O)O)C(=O)O)c(=O)c1=O (single isomer, unassigned) [^89Zr(3), metal not drawn]
- Tumour SUVmax 1 h pi [3]: 1.7 ± 0.12
- Tumour SUVmax 18 h pi [3]: 0.6 ± 0.06
- Tumour SUVmax Clearance % [3]: 65%
- Cell Uptake % AR/mg protein (60 min) Surface bound (LNCap cells): 2.2 ± 0.14 % AR/mg protein
- Cell Uptake % AR/mg protein (60 min) internalized (LNCap cells): 3.8 ± 0.39 % AR/mg protein
- Tumour Uptake % ID/g 1 h pi ([4]; male, iv, 1 h): 5.9 % ID/g
- Tumour Uptake % ID/g 18 h pi ([4]; male, iv, 18 h): 2.5 ± 0.22 % ID/g
